In paper PMC7415141, “Identification and characterization of cytosolic malate dehydrogenase from the liver fluke Fasciola gigantica” (Scientific Reports, 2020) one finds stoichiometry N, Km and Vmax data, which are given here for 2 molecules.

The target of series [1] is cytosolic malate dehydrogenase from Fasciola gigantica (Fasciola gigantica). Kind of series: SEC; gel filtration on Superdex 200 (AKTA FPLC), buffer B (50 mM phosphate pH 7.6, 150 mM NaCl, 10% glycerol), room temperature, 0.3 mL/min; column calibrated with mass standards; single peak at about 15.3 mL, ~72 kDa against ~36 kDa for the monomer. (In general: SEC sorts molecules by how far they enter the pores of the column.)

Substrate in series [2]: NC(=O)C1=CN([C@@H]2O[C@H](COP(=O)(O)OP(=O)(O)OC[C@H]3O[C@@H](n4cnc5c(N)ncnc54)[C@H](O)[C@@H]3O)[C@@H](O)[C@H]2O)C=CC1
The series can be described thus: purified protein. The conditions noted are these: co-substrate oxaloacetate (0.2 mM), 50 mM Tris-Cl, pH 8.0, 25 °C, 50 nM enzyme, varied: cofactor. Format: biochemical, Fasciola gigantica.

Substrate in series [3]: O=C(O)C[C@H](O)C(=O)O
Kind of series: purified protein. It counts as biochemical, Fasciola gigantica. The conditions noted are these: co-substrate NAD+ (0.5 mM), 50 mM glycine buffer, pH 9.6, 25 °C, 50 nM enzyme.

Substrate in series [4]: O=C(O)CC(=O)C(=O)O
Kind of series: purified protein. The conditions noted are these: co-substrate NADH (0.21 mM), 50 mM Tris-Cl, pH 8.0, 25 °C, 50 nM enzyme. Format: biochemical, Fasciola gigantica.

Substrate in series [5]: NC(=O)c1ccc[n+]([C@@H]2O[C@H](COP(=O)(O)OP(=O)(O)OC[C@H]3O[C@@H](n4cnc5c(N)ncnc54)[C@H](O)[C@@H]3O)[C@@H](O)[C@H]2O)c1
Kind of series: purified protein. Format: biochemical, Fasciola gigantica. The conditions noted are these: co-substrate malate (assay text: 3 mM, misprinted as MDH), 50 mM glycine buffer, pH 9.6, 25 °C, 50 nM enzyme, varied: cofactor.

One may read the stoichiometry N as the number of molecules, sites or subunits per partner or assembly. For “cytosolic malate dehydrogenase from Fasciola gigantica (enzyme)”, the stoichiometry N in series [1] was 2.

B1: FgMDH (cytosolic malate dehydrogenase of Fasciola gigantica) (Fasciola gigantica) (protein)
chain: MAPVKVLITGAAGQIGYNLAGMVARGDMLGPNQELILHLFDITPMLNSLHGLQMELDDCAFPLVREVVITDKAEVAFDDIDIALMVGAMPRKEGMERKDLLQANANIFKEQGKVLNEKAKKTVKVIVVGNPANTNALIMMKNAPSIPKENFSAMTRLDHNRATAQIAKRLKIPCTAVKNCVIWGNHSATQFPDVSHAVASIGGKDVKVWDAIKDEEWLKNEFVTTVQKRGAAVIAARKLSSAMSAAKAVVDHIHDWWYGTKPGEWVSMSVWSDGSYGAPVDVFFSFPVEIKDKKWTIVKDLSMDDWGKSMFKTTAEELSEEKVAALGK
notes: ~36 kDa, dimer ~72 kDa
The term Km denotes the concentration of substrate that gives half-maximal velocity. As usually defined, the Vmax is the rate approached at saturating substrate. In the case of B1, the Km in “purified protein [2]” came out at 141 ± 54 µM; in the series “purified protein [3]”, 447 ± 47 µM; in the series “purified protein [4]”, 276 ± 92 µM; in “purified protein [5]”, 309 ± 15 µM. For the same molecule, the maximal velocity (Vmax) in the series “purified protein [2]” amounted to 3.42 µmol/min; in “purified protein [3]”, 5.45 µmol/min; in the series “purified protein [4]”, 4.1 µmol/min; in “purified protein [5]”, 18.7 µmol/min.
